Laboratory results as given in patent US7060266.

How the values were obtained:
[1] = molecular target: natural brain APP prepared from human hippocampus, P05067
[2] = molecular target: natural brain APP pretreated with chondroitinase ABC, P05067
[3] = molecular target: synthetic Aβ 1-40, P05067
[4] = molecular target: synthetic Aβ 1-42, P05067

B1: human brain carboxypeptidase B, 40 kDa protease (prepro-HBCPB) (protein)
chain: ASASYYEQYHSLNEIYSWIEFITERHPDMLTKIHIGSSFEKYPLYVLKVSGKEQTAKNAIWIDCGIHAREWISPAFCLWFIGHNRMWRKNRSFYANNHCIGTDLNSNFVSKHWCEEGASSSSCSETYCGLYPESEPEVKAVASFLRRNINQIKAYISMHSYSQHIVFPYSYTRSKSKDHEELSLVASEAVRAIDKTSKNTRYTHGHGSETLYLAPGGGDDWIYDLGIKYSFTSNPPVEKLLPLSLK
[1]
  proteolysis of natural brain APP (Western blot with anti Aβ 1/14 antibody): the 40 kDa protein degraded natural brain APP, generating a 5.5 kDa fragment as the major component of the 3 to 11 kDa Aβ-containing peptides
[2]
  proteolysis of chondroitinase ABC-pretreated brain APP: it was shown that the reaction is almost completely inhibited
[3]
  digestion of synthetic Aβ 1-40 (Western blot): low-molecular weight peptides formed in a dose-dependent manner
[4]
  digestion of synthetic Aβ 1-42 (Western blot): low-molecular weight peptides formed in a dose-dependent manner

B2: human brain carboxypeptidase B, 30 kDa mature form (protein)
chain: ASASYYEQYHSLNEIYSWIEFITERHPDMLTKIHIGSSFEKYPLYVLKVSGKEQTAKNAIWIDCGIHAREWISPAFCLWFIGHNRMWRKNRSFYANNHCIGTDLNRNFASKHWCEEGASSSSCSETYCGLYPESEPEVKAVASFLRRNINQIKAYISMHSYSQHIVFPYSYTRSKSKDHEELSLVASEAVRAIEKTSKNTRYTHGHGSETLYLAPGGGDDWIYDLGIKYSFTSNPPVEKLLPLSLK
[1]
  proteolytic activity of native-PAGE fractions for natural brain APP: fraction 19 with a molecular mass of about 40 kDa and fraction 11 with a molecular mass of about 30 kDa had similar proteolytic activities
